Assay: DNA shuffling libraries: 14CO2 capturing assay in 384-well format, fold activity of backbone (Megatable 2)
Conditions: relative to backbone SEQ ID NO: 509 (DDEC0810)

Row | Molecule | Fold Activity
1 | 567 (protein, Dicamba decarboxylase variant) MAQGLVALEEHFAIPETLQDAAGFVPGDYWKELQHRLLDIQDTRLKEMDKHEIGTMVLSLAAPAVQAIPDRRKAIEIARRANDFLAEEVAKRPDRFLAFAALPMQDPEAATEELQRCVADLGFVGAMVNGFSQEGDGQTPLYYDLPQYRPFWGEVEKLDVPFYLHPRNPLPQDSRIYDGHPWLLGPTWAFAQETAVHALRLMASGLFDEHPRLNIILGHLGEGLPYMMYRIDHRIAWVKAPPDYPAKRRFMDYFLENFHITTSGNFRTQTLIDAILEIGADRILFSTDWPFENIDHAADWFAATSIAEADRVKIGRTNARRLFKLDVR | 1.1 fold
2 | 568 (protein, Dicamba decarboxylase variant) MAQGLVALEEHFAIPETLQDAAGFVPGDYWKELQHRLLDIQDTRLKEMDKHEIGTMVLSLAAPAVQAIPDRRKAIELARRANDFLAEEVAKRPDRFLAFAALPMQDPEAATEELQRCVADLGFVGAMVNGFSQEGDGQTPLYYDLPQYRPFWGEVEKLDVPFYLHPRNPLPQDARIYDGHPWLLGPTWAFAQETAVHALRLMASGLFDEHPRLNIILGHLGEGLPYMMYRIDHRIAWVKAPPDYPAKRRFMDYFLENFHITTSGNFRTQTLIDAILEIGADRILFSTDWPFENIDHAADWFNATSIAEADRVKIGRTNARRLFKLDGR | 1.6 fold
3 | 569 (protein, Dicamba decarboxylase variant) MAQGLVALEEHFAIPETLQDAAGFVPGDYWKELQHRLLDIQDTRLKEMDKHEIGTMILSLAAPAVQAIPDRRKAIEIAKRANDFLAEEVAKRPDRFLAFAALPLQDVEAATSELQRCVNDLGFVGAMVNGFSQEGDGQTPLYYDLPQYRPFWGEVEKLDVPFYLHPRNPLPQDSRIYDGHPWLLGPTWAFAQETAVHALRLMASGLFDEHPRLNIILGHMGEGLPYMMYRIDHRIAWVKAPPRYPAKRRFMDYFLENFHITTSGNFRTQTLIDAILEIGADRILFSTDWPFENIDHAADWFAATSIAEADRVKIGRTNARRLFKLDVS | 1.3 fold
4 | 570 (protein, Dicamba decarboxylase variant) MAQGLVALEEHFAIPETLQDAAGFVPGDYWKELQHRLLDMQDTRLKEMDKHGIGTMILSLAAPAVQAIPDRRKAIEIARRANDFLAEEVAKRPDRFLAFAALPLQDPEAATEELQRCVADLGFVGAMVNGFSQEGDGQTPLYYDLPQYRPFWGEVEKLDVPFYLHPRNPLPQDSRIYDGHPWLLGPTWAFAQETAVHALRLMASGLFDEHPRLNIILGHMGEGLPYMMYRIDHRIAWVKAPPDYPAKRRFMDYFLENFHITTSGNFRTQTLIDAILEIGADRILFSTDWPFENIDHAADWFNATSIAEADRVKIGRTNARRLFKLDVR | 1.3 fold
5 | 571 (protein, Dicamba decarboxylase variant) MAQGLVALEEHFAIPETLQDAAGFVPGDYWKELQHRLLDIQDTRLKEMDKHGIGTMILSLAAPAVQAIPDRRQAIELARRANDFLAEEVAKRPDRFLAFAALPLQDVDAATSELQRCVADLGFVGAMVNGFSQEGDGQTPLYYDLPQYRPFWGEVEKLDVPFYLHPRNPLPQDARIYDGHPWLLGPTWAFAQETAVHALRLMASGLFDEHPRLNIILGHLGEGLPYMMYRIDHRIAWVKAPPDYPAKRRFMDYFLENFHITTSGNFRTQTLIDAILEIGADRILFSTDWPFENIDHAADWFNATSIAEADRVKIGRTNARRLFKLDGR | 0.9 fold
6 | 572 (protein, Dicamba decarboxylase variant) MAQGKVALEEHFAIPETLQDAAGFVPGDYWKELQHRLLDIQDTRLKEMDKHEIGTMILSLAAPAVQAIPDRRKAIELAKRANDFLAEEVAKRPDRFLAFAALPLQDVDAATEELQRCVADLGFVGAMVNGFSQEGDGQTPLYYDLPQYRPFWGEVEKLDVPFYLHPRNPLPQDSRIYDGHPWLLGPTWAFAQETAVHALRLMASGLFDEHPRLNIILGHMGEGLPYMMYRIDHRIAWVKAPPDYPAKRRFMDYFLENFWITTSGNFRTQTLIDAILEIGADRILFSTDWPFENIDHAADWFNATSIAEADRVKIGRTNARRLFKLDGR | 1.0 fold

From patent US20160040149A1, “Compositions Having Dicamba Decarboxylase Activity and Methods of Use” (priority 2013, published 2016)
